The nature of the series: yeast display, Sf9 membrane polyspecificity reagent, FACS + sequencing; frameworks hold sequencing errors. An outline of the steps:
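In a synthetic yeast display library (Saccharomyces cerevisiae BJ5465), nanobody expression was induced with galactose for 36–48 hours. FACS gates were set low and high (top ~1%) using anti-HA fluorescence for expression and streptavidin fluorescence for binding of the Sf9 membrane reagent. Each polyreactivity label is drawn from the gate of origin.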
With “QVQLVESGGGLVQAGGSLRLSCAASGRTFATYTMGWYRQAPGQERELVAAITRGGGSTFYADSVQGRFTITRDHAKNPVYLQMNSLKPEDTAVYYFAARIPGSFKSGYWGQGTQVTVSS”, the “polyreactivity (PSR sort gate)” value is given as “high polyreactivity”.
With “QVQLVESGGGLVQAGGSLRLSCDASVSIFVANAMGWSRQATGKERELVAAITGRGSRTYYADSVKGRFTISRDNAKNTVYLQMNSLKPEDTAVYYCADRYTNYGGYYWGQGTQVTVSS”, the “polyreactivity (PSR sort gate)” value was “high polyreactivity”.
The entry for “QVQLVESGGGLVQAGGRLRLSCAASGFTFYYKAMGWYRQAPGKEWELVASITWSGGRTYYADSVKGRFTISRDNAKNTVYFQMNSLKPEDTAVYYCNAGYCIGLVAYGYWGQGTQVTVSS” is “low polyreactivity”; for “QVQLVESGGGLVQAGGSLRLSCAASGRIFTGYAMGWYRQAPGKERELVATIRSRGGGTYYADSVKGRFTISRDNAKNTVYLQMNSLKPEDTAVYYCAADDYYYYFGTRYGYWGQGTQVTVSS” it is “low polyreactivity”; for “QVQLVESGGGLVQAGGSLRLSCAASGPTFPFNAMGWYRQAPGKERELVAAISWRDGRTYYADSVKGRFTISRDYAKNTVYLQMNSLKPEDTAVYYCNVVKRRSDWGMDYWGQGTQVTVSS” it is “high polyreactivity”.
On to “QVQLVESGGGLVQAGGSLRLSCAASGSIFYSNAMGWYRQAPGKERELVAAITSSGGITRYADSVKGRFTISRDNAKNTVYLQMNSLKPEDTAVYYCAKDIRVYASDYWGQGTQVTVSS”, for which the “polyreactivity (PSR sort gate)” value is “low polyreactivity”.
As for “QVQLVESGGGLVQAGGSLRLSCAASGITFWTYAMGGYRQAPGKERELVAAISKTVGSTFYADSVKGRFTISRDNAKNTVYLQMNSLKPEDTEVYYCNARRRRTVGWQYNYWGQGTQVTVSS”, the “polyreactivity (PSR sort gate)” value is on record as “high polyreactivity”.
The entry for “QVQLVESGGGLVQAGGSLRLSCAASGLNFYSNAMGWYRQAPGKERELVARISTGGSTYADSVKGRFTISRDNAKNTVYLQMNSLKPEDTAVYYCAKLPPRGIDDEYWGQGSQVTVSS” is “low polyreactivity”; for “QVQLVESGGGLVQAGGSLRLSCAASGFIFIRYAMGWYRQAPGKERELVAAISASGVRTYYADSVKGRFTISRDNAKNTVYLQMNSLKPEDTAVYDCAVRSAWVYGIGRYYWGQGTQVTVSS” it is “high polyreactivity”; for “QVQLVESGGGLVQAGGSLRLSCAASGSIFAVYAMGWYRQAPGKERELVASITNDGSTYADSVKGRFTISRDNAKNTVYLQINSQKPEDTAVYYCNADYLTYFTTFDYWGQGTQVTVSS” it is “low polyreactivity”.
Consider “QVQLVESGGGLVQAGGSLRLSCAASGSIFYGNAMGWYRQAPGNERESVAGITGSGSRTYYADSVKGRFTISRDNAKITVYLQMNSLKAEDTAVYYCARLTRTSRGLYDYWGQGTQVTVSS”, for which the “polyreactivity (PSR sort gate)” value is “high polyreactivity”.
The entry for “QVQLVESGGGLVQAGGSLRLSCAASGFIFDRNTMGWYRQAPGKERELVAAISRSGGSTYYADSVKGRFTISRDNAKNTVYLQMNSLKPEDTAVYYCAALYYYRNRSYDYWGQGTQVTVSS” is “high polyreactivity”.
“QVQLVESGGGLVQAGGSLRLSCAASGITFYRYAMGWYRQAPGKEREFVAAINYGGSSTRYADSVKGRFTISRDNAKNTVYLQMNCLKPEDTAVYYCAVEKRYPRRRYDYWGQGTQVTVSS”: the “polyreactivity (PSR sort gate)” value was “low polyreactivity”.
To “QVQLVESGGGLVQAGGSLRLTCADSGSILYINAMGRYIQAPGKEREWVAAITYSGGSTYYADSVKGRFTISRDNAKNTVYLQMNSLKPEDTAVYYCAADAVVAGRYDGHDYWGQGTQVTVSS” belongs “low polyreactivity”.
The entry for “QVQLVESGGGLVQAGGSLRLSCAASGLIFRRYAMGWYRQAPGKERELVAAISRTGGTTYYADSVKGRFTISRDTAKNTVYLQMNSLKPEDTAVYYCAAAGQGPDYDYWGQGTQVSVSS” is “high polyreactivity”.
For “QVQLVESGGGLVQAGGSLRLSCAASGSIISAYAMGWYRQAPGKVREFVASITWSGGSTYYADSVKGRFTISRDNAKNTVYLQMNSLKPEDTAVYDCAAVYVTWYNNYEYWGQGTQVTVSS”, the “polyreactivity (PSR sort gate)” value is given as “high polyreactivity”.
The entry for “QVQLVESGGGLVQAGGSLRLSCAASGSTFVIYTMGGSRQAPGKERELVAAISWSGGITRYADSVKGRFTISRDIAKNTVYLQMNSLKPEDTAVYYCNASQWPSRFDYWGQGTQVSVSS” is “low polyreactivity”; for “QVQLVESGGGLVQAGGSLRLSCAASGSIFYGNVMGWYRQAPGKERELVAAISSSGGSTYYADSVKGRFTISRDTAKNTVYLQMNSLKPEDTAVYYCAAYWWSRVVRGSRYDYWGQGTQVTVSS” it is “low polyreactivity”; for “QVQLVESGGGLVQAGGSLRLSCAAYGRIFPLNAMGWNRQAPGKERELVAAISYDGGTYYAYSVKGRFTISRDNAKNTFYLQMNSLKPEDTAVYYCANSRATWVGKHDYWGQGTQVTVSS” it is “low polyreactivity”.
To “QVQLVDSGGGLVQAGGSLRLSCAATGRIFAGYAMGGYRQAPGKERELVAAISDGGTTNYADSVKGRFTISRDNAKNTVYLQMNILKPEDTAVYYCAKDAAESYRYGYWGQGTQVTVSS” belongs “low polyreactivity”; to “QVQLVESGGGLVQAGGSLRLSCAASGRTFRRNVMGWYRQAPGKERELVAAISSGANTNYADSVKGRFTISRDNAKNTVYLQMNSLKPEDTAVYYCNARWQEPLKYDYWGQGTQVTVSS”, “low polyreactivity”; to “QVQLVESGGGLVQAGGSLRLSCAASGNICRINGMGWYRQAPGKERELVASITRSGSTYYADSVKGRFTISRDNAKNTVYLQMNSLKPEDTAVYYCNADGWYWQAQGYDYWGQGTQVTVSS”, “low polyreactivity”.
To “QVQLVESGGGLVQAGGSLRLSCAGSGSIYSYNAMGWYRQAPGKERELVAAIDWSGGSTYYADSVKGRFTLSRDNAKNTVYLQMNSLKPEDTAVYYEYDYWGQGTQVTVSS” belongs “low polyreactivity”.
In the case of “QVQLVESGGGLVQAGGSLRLSCAACGRIFGENAMGWYRQAPGKERELVASISSTDSTYYADSVKGRFTISRDNAKNTVYLQMNSLKPEDTAVYYSAARWISVWSEGAEHDYWGQGTQVTVSS”, the “polyreactivity (PSR sort gate)” value is “low polyreactivity”.
To “QVQLVESGGGLVQAVGSLRLSCAASGSIFVKYAMGWYRQAPGKERELVAALSRSGGSTYYADSVKGRFTISRDNAKNTVYLQMNSLKPEDTEVYYCAATYYKGMNYWGQGTQVTVSS” belongs “high polyreactivity”.
Consider “QVQLVESGGGLVQAGGSLRLSCAASGRIFDGNAMGWYRQAPGKERELVATITRGGRTNYADSVKGRFTISRDNAKNTVYLQMNSLKPEDTAVYYCAAEYTYYTYNLNYWGQGTQVTVSS”, for which the “polyreactivity (PSR sort gate)” value is listed as “low polyreactivity”.
For the sequence “QDQHVESGGGLVQAGGSLRLICSASGSTNGLGWYRQAPGKERELVAVITWDTGGTYYADSVKGRFTISRDNAKNTVYLQMNSLKPEDTAVYYCAKDVGHGAGNLMGYWGQGTQVTVSS”, the “polyreactivity (PSR sort gate)” value is given as “low polyreactivity”.
The entry for “QVQLVESGRGLVQAGGSLRLSCAASGSTLYAYAMGWYRQAPGKESELVAAIRRGGRTNYADSVKGRFTISRDNAKNTVYLQMNSLKPEDTAVYYCAARGSKPYSNRLLDYWGLGTQVTVSS” is “high polyreactivity”; for “QVQLVESGGGLVQAGGSLRLSCAASGSSFEPNAMGWYRQAPGKERELVASITSSGGNTYYADSVKGRFTISRDNAKNTVYLQMNSLKPEDTAVYSCAAGSGYAFGGYYLWGFGYWGQGTQVTVSS” it is “low polyreactivity”; for “QVQLVESGGGLVQAGGSLRLICAASGRIFLRNDMGWYRQAPGKERELVAGISSDGSTYYADSVNGRFTISRDNAKNTVYLQMNSLKPEDTAVYYCAAERWGNPTDYQFWRPYDYWGQGTQVTVSS” it is “low polyreactivity”.
For the sequence “QVQLVESGGGLVQAGGSLRLSCAASGGTFSSNAMGWYRQAPGKERELVAAISGSGDRTYYADSVKGRFTISRDNAKNTVYLQMNSLKPEDTAVYYCAAEHETGAYYYWGQGTQVTVSS”, the “polyreactivity (PSR sort gate)” value is given as “high polyreactivity”.
The entry for “QVQLVESGGGLVQAGGSLRLSCAPSGSTFVYYAMGWYRPAPGKERELVAAINRSGTRTYYADSVKGRFSISRDNAKNTVYLQMNSLKPEDTAVYYCDKAVQGKYGYWGQGTQVTVSS” is “high polyreactivity”; for “QVQLVESGGGLVQAGGSLRLSCAASGIIFRRYAMGWYRQAPGKERELVAAISSSGGNTYYADSVKGRFTISRDNAKNTVYLQMYSLKPEDTAVYYCAARSQIYYRYRSYGYWGQGTQVTVSS” it is “high polyreactivity”; for “QVQLVETGGGLVQAGGSLRLSCAPSGRILYGYAMGWYRQAPGKERELVASITWSGGSTYADSVKGRFTISRDNAKNTVYLQMNSLKPEDTAVYFCATRRGPKWQWLTYGYWGQGTQVTVSS” it is “low polyreactivity”.
To “QVQLVESGGGLVQAGGSLRLSCAASGFTFRRYAMGWYRQAPGKERELVAAITRGGSTYYADSVKGRFTISRDNAKNTVYLQMNSLKPEDTAVYYCAARGGTRYSTRSYGYWGQGTQVTVSS” belongs “high polyreactivity”; to “QVQLVESGGGLVQAGGSLRLSCAASGSIFGYYVMGWYRPAPGKERELVAAITRSGSTYYADSVKGRFTISRDNAKNTVYLQMNSLKPEDTAGYYCAADGSYYWYPHTTYDYWGQGTQVTVSS”, “low polyreactivity”; to “QVQLVESGGGLVQAGGSLRLSCAASGRIFRYNTMGWYRQAPGKERELVADINSGGSTYADSVKGRFTISRDNAKNTVYLQMNSLKPEDTAVYYCNADSGLRAGYYYGYDYWGQGTQVTVSS”, “low polyreactivity”.
Take “QVQLVESGGGLVQEGGSLRLSCAASGRTFDRYAMGWYRQAPGKERELVAAITWTGGSTYYADSVKGRFTISRDNAKNTVYLQMNSLKPEDTAFYYCNRAPSRPTSKTRLYYWGKGTQVTVSS”: the “polyreactivity (PSR sort gate)” value is “high polyreactivity”.
The entry for “QGQLVESGGGLVQAGGSLRLSCAASGSIFPYYAMGWYRQAHGKERELVAVITTSGGRTYYADSVKGRFTISRDNAKNTVYLQMNSLKPADTAVYYCATDVRQGSGWRYYYWGQGTQVTVSS” is “high polyreactivity”; for “QVQLVESGGGLVQAGGSLRLSCAASGSTFDGYAMGWYRPAPGKERELVAGISTSGGSTYYADSVKGRFTISRDNAKNTVYLQMNSLKPEDSAVYYCAAEWFDQVKDPAADYISYEYWGQGTQVTVSS” it is “low polyreactivity”; for “QVQLVESGGGLVQAGGSLRLSCAASGRIFFRNAMGWYRQAPGKERELVAVINTGGSTNYADSVKGRFTISRDNAKNTVFLQMNSLKPEDTAVYYCAVDRASRRTYNQYGFWGQGTQVTVSS” it is “high polyreactivity”.

Values taken from the nanobody polyreactivity screen of Harvey et al. (2022).
